Data reported in the nanobody polyreactivity screen of Harvey et al. (2022).

Test: yeast display, Sf9 membrane polyspecificity reagent, FACS + sequencing; frameworks hold sequencing errors
Summary of the method: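 Genes from sorted yeast were amplified by colony PCR, read by MiSeq 2 × 250 sequencing and filtered on CDR length. These cells carried a synthetic nanobody library in Saccharomyces cerevisiae BJ5465 and were sorted by FACS into low and high (top ~1%) gates on anti-HA and streptavidin fluorescence. Polyreactivity is labelled according to the gate of origin.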

| Sequence | polyreactivity (PSR sort gate) |
| --- | --- |
| QVQLVESGGGLVQAGGSLRLSCAASGSTFVRYAMGWYRQAPGKERELVAAITWSGGITYYADSVKGRFTISRDNAKNTVYLQMNSLKPEDTAVYYCNAEQKQYEKSYDYWGQGTQVTVSS | low polyreactivity |
| QVQLVESGGGLVQAGGSLRLSCAASGSTFVSNAMGWSRQAPGKERELVAAITRRGGSTYYADSVKGRFTISRDNAKNTVYLQMNSLKPEDTAVYYCAAYSTLTPAYEYWGQGTQVTVSS | high polyreactivity |
| QVQLVESGGGLVQAGGSLRLSCAASGSTFVSNVMGWYRQAPGKERELVAAITSGGSTYYADSVKGRFTISRDNAKNTVYLQMNSLKPEDTAVYYCAAGGRWARWLFPSRYDYWGQGTQVTVSS | low polyreactivity |
| QVQLVESGGGLVQAGGSLRLSCAASGSTFVTNAMVWYRQAPGKEREFVAAIRWSAGNTYYADSVKGRFTISRDNAKNTVFLQMNSLKPEDTAVYYCAADIYEQRSTYYAEYYSWGQGTQVTVSS | low polyreactivity |
| QVQLVESGGGLVQAGGSLRLSCAASGSTFVTNGMGWYRQAPGKERELVAAISGNVGSTYYADSVKGRFTISRDNAKNTVYLQMNSLKPEDTAVYYCAARQYRPSDYDYWGQGTQVTVSS | low polyreactivity |
| QVQLVESGGGLVQAGGSLRLSCAASGSTFVTNVMGSYRQAPGKERELVAAISYSGGNTYYEDSVKGRFTISRDNSKNTVYLQRNSLNPEDTAVYYCDASYKQFKKMGYWGQGTQVTVSS | high polyreactivity |
| QVQLVESGGGLVQAGGSLRLSCAASGSTFVTYTMGWYRQAPGKERELVAAISWSGDTTYADSVKGRFTISRDNAKNTVYLQMNSLKPVDTAVYYCAADDDWSGVEFDYLGQGTQVTVSS | low polyreactivity |
| QVQLVESGGGLVQAGGSLRLSCAASGSTFVVNTMGRYRQAPGKERELVAAISTGSSTYADSVKGRFTISRDNAKNTVYLQMNSLKPEDTAVYYCNTAFPGKYDYWGQGTQVTVSS | low polyreactivity |
| QVQLVESGGGLVQAGGSLRLSCAASGSTFVVYAMGWYRQAPGKERELVAAIDLSVGDTYYADSVKGRFTISRDNAKNTVYLQMNSLKPEDTAVYYCAAEFYSYKYPDYDYWGQGTQVTVSS | low polyreactivity |
| QVQLVESGGGLVQAGGSLRLSCAASGSTFVWNAMGWYRQAPGKERELVASISSSGDRTYYADSVKGRFTISRDNAKNTVYLQMNSLKPEDTAVYYCAARYTRADYDYLGQGTQVTVSS | high polyreactivity |
| QVQLVESGGGLVQAGGSLRLSCAASGSTFVWYAMGWYRQAPGKEREFDATISWSDGSRYYADSVKGRFTISRDNAKNTVYLHMNSLKPEDPAVYYCASDVDRFFTYTYDYWGQGTQVTVSS | low polyreactivity |
| QVQLVESGGGLVQAGGSLRLSCAASGSTFVWYAMGWYRQAPGKERELVAVIDWSGGSTSYADSVKGRFTISRDNAKNTVYLQMNSLKPEDTAVYYCAADSGHYYGLYYWGQGTQVTVSS | low polyreactivity |
| QVQLVESGGGLVQAGGSLRLSCAASGSTFVYMGGYRQAPGKEREFVAITFSGGRTYADSVKGRFTISRDNAKNTVYLQMNSLKPEDTAVYYCNKGDDFYSTYSYDYWGQGTQVTVSS | low polyreactivity |
| QVQLVESGGGLVQAGGSLRLSCAASGSTFVYNAMGWYRQAPGKEREFVAVINWSGGRTYADSVKGRFTISRDNAKNTVYLQMISLKPEDTEVYYCIARRRTGYRPAMDYWGQGTEVTVSS | high polyreactivity |
| QVQLVESGGGLVQAGGSLRLSCAASGSTFVYNAMGWYRQAPGKERELVAAISRRGTSTYYADSVKGRFTISRDNAKNTVYLQMNSLKPEDTAVYYCAASQLSRSGQYRRDYWGQGTQVTVSS | high polyreactivity |
| QVQLVESGGGLVQAGGSLRLSCAASGSTFVYNAMGWYRQAPGKERELVAAITVIGGRTYYADSVKGRFTISRDNAKNTVYLQMISLKPEDTAVYYCNADATESIGYYDEYEYWGQGTQVTVSS | low polyreactivity |
| QVQLVESGGGLVQAGGSLRLSCAASGSTFVYSAMGWYRQAPGKERELVAAIRNGDGTNYADSVKGRFTISRDNAMNTVYLQMNSLKPEDTAVYYCAAPQGEYFYVYEFDYWGQGTQVTVSS | low polyreactivity |
| QVQLVESGGGLVQAGGSLRLSCAASGSTFVYYAMGWYRQAPGKERELVAAINRSGTRTYYADSVKGRFTISRDNAKNTVYLQMNSLKPEDTAVYYCAKAVQGKYGYWGQGTQVTVSS | high polyreactivity |
| QVQLVESGGGLVQAGGSLRLSCAASGSTFVYYAMGWYRQAPGKERELVAAISSGGNTKYADSVKGRFTISRDNAKNTVYLQMNSLKPEDTAVYYCARESQSYYDHDYWGQGTQVTVSS | low polyreactivity |
| QVQLVESGGGLVQAGGSLRLSCAASGSTFVYYAMGWYRQAPGKERELVAAITGSVDSTYYADSVKGRFTISRDNAKNTVYLQMNSLKPEDTAVYYCAADTYSTYWGQGTQVTVSS | low polyreactivity |
| QVQLVESGGGLVQAGGSLRLSCAASGSTFVYYDMGWYRQAPGKERELVAAISRGGGSTYYADSVKGRFTISRDNAKNTVYLQMNSLKPEDTAVYYCAAVAGYRYYWGQGTQVTVSS | high polyreactivity |
| QVQLVESGGGLVQAGGSLRLSCAASGSTFVYYTMGWYRQAPGKERELVATISSRGGSTYYADSVKGRFTISRDNAKNTVYLQMNSLKPEDTAVYYCAKRGPFYGNYDYWGQGTQVTVSS | high polyreactivity |

| Sequence | polyreactivity (PSR sort gate) |
| --- | --- |
| QVQLVESGGGLVQAGGSLRLSCAASGSTFWANAMGWSRPAPGKERELVAAITSTGITYYADSVKGRFTISRDNAKNTVYLQMNSLIPEDTAVYYCAAEPPDEFWTDLLVDYFLGYEYWGPGTQVTVSS | low polyreactivity |
| QVQLVESGGGLVQAGGSLRLSCAASGSTFWATAMGWYRQAPGKERELVAAITTSGASTNYADSVKGRFTISRDNAKNTVYLQMNSLKPEDTAVYYCAADYDSYYWYNYWGQGTQVTVSS | low polyreactivity |
| QVQLVESGGGLVQAGGSLRLSCAASGSTFWEYAMGWYRQAPGKEREFVAAISYRGGGTYYADSVKGRFTISRDNAKNTVYLQKNSLKPEDTAVYYCAARRWRGRYWGDYWGQGTQVTVSS | high polyreactivity |
| QVQLVESGGGLVQAGGSLRLSCAASGSTFWFNAMGWYRQAPGKEREFVAAITWRGGSTYYSDSVKGRFTISRDNAKNTVYLQMNSLKPEDTAVYYCAAVTAYYYRRTYEYWGQGTQVTVSS | high polyreactivity |
| QVQLVESGGGLVQAGGSLRLSCAASGSTFWFYAMGWYRPAPGKERELVAVISNSGSTYYADSVKGRFTISRDNAKNTVYLQMNSLQPEDTAVYYCNKDGGGDSYWYDYWGQGTQVTVSS | low polyreactivity |
| QVQLVESGGGLVQAGGSLRLSCAASGSTFWFYAMGWYRQAPGKERELVAAISRSSGSTYYADSVKGRFTISRDNAKNTVYLQMNSLKPEDTAVYYCAKGWSSVPTQYDYWGQGTQVTVSS | low polyreactivity |
| QVQLVESGGGLVQAGGSLRLSCAASGSTFWFYAMGWYRQAPGKERELVAAITSSGSSTYYADSVKGRFTISRDNAKNTVYLQMNCLKPEDTAVYYCAADDSNDSPSLYYVAYNYWGQGTQVTVSS | low polyreactivity |
| QVQLVESGGGLVQAGGSLRLSCAASGSTFWFYAMGWYRQAPGKERELVAVISNSGSTYYADSVKGRFTISRDNAKNTVYLQMNSLKPEDTAVYYCNKDGGGDSYWYDYWGQGTLVTVSS | low polyreactivity |
| QVQLVESGGGLVQAGGSLRLSCAASGSTFWFYAMGWYRQAPGKERELVAVISNSGSTYYADSVKGRFTISRDNAKNTVYLQMNSLKPEDTAVYYSNKDGGGDSYWYDYWGQGTQVTVSS | low polyreactivity |
| QVQLVESGGGLVQAGGSLRLSCAASGSTFWFYAMRWYRQAPGKERELVAAITRSAGSTYYADSVKGRFTISRDNAKNTVYLQMNSLKPEDTAVYYCAAQRESLYGGFDYWGQGTQVTVSS | low polyreactivity |
| QVQLVESGGGLVQAGGSLRLSCAASGSTFWGNAMGWYRQAPGKERELVAAISSRGGSTYYADSVKGRFTISRDNAKNTVYLQMNSLKPEDTAVYYCNTLQSSHGSSQYDSWGQGTQVTVSS | low polyreactivity |
| QVQLVESGGGLVQAGGSLRLSCAASGSTFWHYVMGWYRQAPGKERELVAAISNGGRTNYADSVKGRFTISRDNAKNTVYLHMKSMKPEVTAVYYCAARRRVSYHLYGYWGQGTQVTVSS | high polyreactivity |
| QVQLVESGGGLVQAGGSLRLSCAASGSTFWIYAMGWYRQAPGKERELFAAITLRSGSTYYADSVKGRFTISRDNSKNTVYLQMNSLKPEDTAVYYCATDSWGFDSPNYNYWGQCTQVTVSS | low polyreactivity |
| QVQLVESGGGLVQAGGSLRLSCAASGSTFWIYAMGWYRQAPGKERELVAAITLRSGSTYYADSVKGRFTISRDNAKNTVYLQMNSLKPEDTSVYYCATDSWGVDRPNYNYWGQGTQVTVSS | low polyreactivity |
| QVQLVESGGGLVQAGGSLRLSCAASGSTFWPYAMGWYRQAPGKERELVATIRWSGGSTSYADSVKGRFTISRDNAKNTVYVQMNSLKPEDTAVYYCAARDFHYYRFKTYGYWGQGTQVTVSS | high polyreactivity |
| QVQLVESGGGLVQAGGSLRLSCAASGSTFWQNAMGWYRPAPGKERELVAAIRSRGDRTYYADSVKGRFTISRDNAKNTVYLQMNSLKPEDTAVYYCAAYAGYSDQARYYYWGQGTLVTVSS | high polyreactivity |
| QVQLVESGGGLVQAGGSLRLSCAASGSTFWRYAMGWYRQAPGKERELVAGITWNGGSTYYADSVKGRFTISRDNAKNTVYLQMNCLIPEDTAVYYCAARRSWGYIYRLGYGMDYWGQGTQVTVSS | high polyreactivity |
| QVQLVESGGGLVQAGGSLRLSCAASGSTFWSNAMGWYRHAPGKERELVAVISRRCVRKYYADSVKGRFTISRDNAKNNVYLQMNSLKPEDTAVFYCNAEVYGELDYWGQGTQVNVSS | low polyreactivity |
| QVQLVESGGGLVQAGGSLRLSCAASGSTFWSNAMGWYRQAPGKERELVATINSGDGTNYADSVKGRFTISRDNAKNTVYLQMNSLKPEDTAVYYCAAEKYYPWGWYTYDYWGQGTQVTVSS | high polyreactivity |
| QVQLVESGGGLVQAGGSLRLSCAASGSTFWSYAMGWYRPAPGKERELVAAITSGGRTYYADSVKGRFTISRDNAKNTVYLQMNSLKPEDTAVYYCNAVVRHTYRRFDYWGQGTQVTVSS | high polyreactivity |
| QVQLVESGGGLVQAGGSLRLSCAASGSTFWSYAMGWYRQAPGKERELVAAITSGGRTYYADSVKGRFTISRDNAKNTVYLQMNSLKPEDTAVYYCNAVVRHTYRRFDYWGQGTQVTVSS | high polyreactivity |
